The text below walks through data of publication PMC4564764, “Collagen Q and anti-MuSK autoantibody competitively suppress agrin/LRP4/MuSK signaling” (Scientific Reports, 2015).

The experiment concerns the target T1, purified recombinant ectodomain of human MuSK fused to myc (hMuSKect-myc), wild type (human, UniProt O15146 24-495).
T1 construct: muscle-specific receptor tyrosine kinase (MuSK), human, ectodomain (Ig1, Ig2, Ig3, C6 box, Ig4); It holds the C6 box, since a ΔC6 form was made from it; also called Wt; source: HEK293, transfected with phMUSKect-myc; in lysate for co-IP; not shown: myc, C-terminal, kept
T1 sequence (looked up): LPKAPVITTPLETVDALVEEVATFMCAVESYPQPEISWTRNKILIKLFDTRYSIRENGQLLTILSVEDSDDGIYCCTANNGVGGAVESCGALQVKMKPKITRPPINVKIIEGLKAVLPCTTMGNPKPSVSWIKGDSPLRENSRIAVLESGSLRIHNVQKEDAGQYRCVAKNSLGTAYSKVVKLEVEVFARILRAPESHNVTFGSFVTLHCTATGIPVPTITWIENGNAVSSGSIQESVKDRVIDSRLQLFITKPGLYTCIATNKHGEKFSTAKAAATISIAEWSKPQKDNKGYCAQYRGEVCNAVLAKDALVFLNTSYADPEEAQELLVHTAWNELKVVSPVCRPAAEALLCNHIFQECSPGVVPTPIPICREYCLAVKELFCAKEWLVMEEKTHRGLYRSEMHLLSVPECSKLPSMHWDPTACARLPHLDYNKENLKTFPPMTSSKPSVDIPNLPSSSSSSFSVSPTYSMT
Kind of experiment: ELISA; in vitro plate-binding assay: 0.15 ug hMuSKect-myc coated on a Maxi-Sorp plate, blocked with 1% BSA; 0.12 ug hLRP4N-FLAG overlaid with or without 0.24 ug rat neural agrin, room temperature 2 h; bound hLRP4N-FLAG read with anti-FLAG-HRP, normalised to that without agrin. The note with it: both partners purified. (In general: ELISA stands for enzyme-linked immunosorbent assay.)

B1: N-terminal ectodomain of human LRP4 fused to FLAG (hLRP4N-FLAG) (domain or fragment, UniProt O75096 21-1725, looked up)
chain: SSPECACGRSHFTCAVSALGECTCIPAQWQCDGDNDCGDHSDEDGCILPTCSPLDFHCDNGKCIRRSWVCDGDNDCEDDSDEQDCPPRECEEDEFPCQNGYCIRSLWHCDGDNDCGDNSDEQCDMRKCSDKEFRCSDGSCIAEHWYCDGDTDCKDGSDEENCPSAVPAPPCNLEEFQCAYGRCILDIYHCDGDDDCGDWSDESDCSSHQPCRSGEFMCDSGLCINAGWRCDGDADCDDQSDERNCTTSMCTAEQFRCHSGRCVRLSWRCDGEDDCADNSDEENCENTGSPQCALDQFLCWNGRCIGQRKLCNGVNDCGDNSDESPQQNCRPRTGEENCNVNNGGCAQKCQMVRGAVQCTCHTGYRLTEDGHTCQDVNECAEEGYCSQGCTNSEGAFQCWCETGYELRPDRRSCKALGPEPVLLFANRIDIRQVLPHRSEYTLLLNNLENAIALDFHHRRELVFWSDVTLDRILRANLNGSNVEEVVSTGLESPGGLAVDWVHDKLYWTDSGTSRIEVANLDGAHRKVLLWQNLEKPRAIALHPMEGTIYWTDWGNTPRIEASSMDGSGRRIIADTHLFWPNGLTIDYAGRRMYWVDAKHHVIERANLDGSHRKAVISQGLPHPFAITVFEDSLYWTDWHTKSINSANKFTGKNQEIIRNKLHFPMDIHTLHPQRQPAGKNRCGDNNGGCTHLCLPSGQNYTCACPTGFRKISSHACAQSLDKFLLFARRMDIRRISFDTEDLSDDVIPLADVRSAVALDWDSRDDHVYWTDVSTDTISRAKWDGTGQEVVVDTSLESPAGLAIDWVTNKLYWTDAGTDRIEVANTDGSMRTVLIWENLDRPRDIVVEPMGGYMYWTDWGASPKIERAGMDASGRQVIISSNLTWPNGLAIDYGSQRLYWADAGMKTIEFAGLDGSKRKVLIGSQLPHPFGLTLYGERIYWTDWQTKSIQSADRLTGLDRETLQENLENLMDIHVFHRRRPPVSTPCAMENGGCSHLCLRSPNPSGFSCTCPTGINLLSDGKTCSPGMNSFLIFARRIDIRMVSLDIPYFADVVVPINITMKNTIAIGVDPQEGKVYWSDSTLHRISRANLDGSQHEDIITTGLQTTDGLAVDAIGRKVYWTDTGTNRIEVGNLDGSMRKVLVWQNLDSPRAIVLYHEMGFMYWTDWGENAKLERSGMDGSDRAVLINNNLGWPNGLTVDKASSQLLWADAHTERIEAADLNGANRHTLVSPVQHPYGLTLLDSYIYWTDWQTRSIHRADKGTGSNVILVRSNLPGLMDMQAVDRAQPLGFNKCGSRNGGCSHLCLPRPSGFSCACPTGIQLKGDGKTCDPSPETYLLFSSRGSIRRISLDTSDHTDVHVPVPELNNVISLDYDSVDGKVYYTDVFLDVIRRADLNGSNMETVIGRGLKTTDGLAVDWVARNLYWTDTGRNTIEASRLDGSCRKVLINNSLDEPRAIAVFPRKGYLFWTDWGHIAKIERANLDGSERKVLINTDLGWPNGLTLDYDTRRIYWVDAHLDRIESADLNGKLRQVLVSHVSHPFALTQQDRWIYWTDWQTKSIQRVDKYSGRNKETVLANVEGLMDIIVVSPQRQTGTNACGVNNGGCTHLCFARASDFVCACPDEPDSRPCSLVPGLVPPAPRATGMSEKSPVLPNTPPTTLYSSTTRTRTSLEEVEGRCSERDARLGLCARSNDAVPAAPGEGLHIS
notes: low-density lipoprotein receptor-related protein 4 (LRP4), human, printed as 'the N-terminal ectodomain of human LRP4'; also called hLRP4-FLAG; source: HEK293, transfected with phLRP4N-FLAG; in lysate for co-IP; not shown: FLAG, C-terminal, kept
As for B1, the “fold increase of bound hLRP4N-FLAG with agrin over without agrin” value stood at 36 fold.
